Biological target: CV S-protein construct 6 trimer TP31001F (SARS-CoV-2, UniProt P0DTC2 14-1208)
Assay: SPR

| Binder | Kd [nM] |
| --- | --- |
| variant 6-99 (Fc fusion) VHH: EVQLVESGGGLVQPGGSLRLSCAASGIPFRSRTMGWFRQAPGKEREFVAGISRSGASTAYADSVKGRFTISADNSKNTAYLQMNSLKPEDTAVYYCTHANDYGDYWGQGTLVTVSS | 3.4 |
| variant 6-72 (Fc fusion) VHH: EVQLVESGGGLVQPGGSLRLSCAASGSTLSINAMGWFRQAPGKEREFVAAIDWSGGSTAYADSVKGRFTISADNSKNTAYLQMNSLKPEDTAVYYCARDSSATRTGPDYWGQGTLVTVSS | 2 |
| variant 6-90 (Fc fusion) VHH: EVQLVESGGGLVQPGGSLRLSCAASGFPFSIWPMGWFRQAPGKEREFVAAVRWSSTYYADSVKGRFTISADNSKNTAYLQMNSLKPEDTAVYYCATGECDGGSCSLAYWGQGTLVTVSS | 17.1 |
| variant 6-82 (Fc fusion) VHH: EVQLVESGGGLVQPGGSLRLSCAASGSSLDAYGMGWFRQAPGKEREFVAAISWGGGSIYYADSVKGRFTISADNSKNTAYLQMNSLKPEDTAVYYCARLSQGMVALDYWGQGTLVTVSS [variant 6-82, listing 1 of 2 here] | 0.6 |
| variant 6-67 (Fc fusion) VHH: EVQLVESGGGLVQPGGSLRLSCAASGSFSNYAMGWFRQAPGKEREFVAAISSSGALTSYADSVKGRFTISADNSKNTAYLQMNSLKPEDTAVYYCWIVGPGPLDGMDVWGQGTLVTVSS | 0.1 |
| variant 6-71 (Fc fusion) VHH: EVQLVESGGGLVQPGGSLRLSCAASGITFSNDAMGWFRQAPGKEREFVAIITSSDTNDTTNYADSVKGRFTISADNSKNTAYLQMNSLKPEDTAVYYCARLHYYDSSGYFDYWGQGTLVTVSS | 0.6 |
| variant 6-106 (Fc fusion) VHH: EVQLVESGGGLVQPGGSLRLSCAASGIPSTLRAMGWFRQAPGKEREFVAATSWSGGSKYYADSVKGRFTISADNSKNTAYLQMNSLKPEDTAVYYCATDLYYMDVWGQGTLVTVSS | 1070 |
| variant 6-97 (Fc fusion) VHH: EVQLVESGGGLVQPGGSLRLSCAASGFTFSSLAMGWFRQAPGKEREFVAAITWSGDITNYADSVKGRFTITADNSKNTAYLQMNSLKPEDTAVYYCLRLSSSGFDHWGQGTLVTVSS | 57.9 |
| variant 6-112 (Fc fusion) VHH: EVQLVESGGGLVQPGGSLRLSCAASGGTFSAYHMGWFRQAPGKERELVTIIDNGGPTSYADSVKGRFTISADNSKNTAYLQMNSLKPEDTAVYYCTALLYYFDNSGYNFDPFDIWGQGTLVTGSS | 43.8 |
| variant 6-73 (Fc fusion, VHH-Fc) VHH: EVQLVESGGGLVQPGGSLRLSCAASGHTFSGYAMGWFRQAPGKEREFVAVITREGSTYYADSVKGRFTISADNSKNTAYLQMNSLKPEDTAVYYCARLGGEGFDYWGQGTLVTVSS | 0.5 |
| variant 6-108 (Fc fusion) VHH: EVQLVESGGGLVQPGGSLRLSCAASGGTFGSYGMGWFRQAPGKEREFVAAIRWSGGITYYADSVKGRFTISADNSKNTAYLQMNSLKPEDTAVYYCARERYWNPLPYYYYGMDVWGQGTLVTVSS | 0.3 |
| variant 6-76 (Fc fusion, VHH-Fc) VHH: EVQLVESGGGLVQPGGSLRLSCAASGLAFDFDGMGWFRQAPGKEREGVAAINSGGSTYYADSVKGRFTISADNSKNTAYLQMNSLKPEDTAVYYCARFFRAHDYWGQGTLVTVSS | 1.8 |
| variant 6-95 (Fc fusion) VHH: EVQLVESGGGLVQPGGSLRLSCAASGIPSSIRAMGWFRQAPGKEREFVAVIRWTGGSTYYADSVKGRFTISADNSKNTAYLQMNSLKPEDTAVYYCARDIGYYDSSGYYNDGGFDYWGQGTLVTVSS | 7.6 |
| variant 6-78 (Fc fusion, VHH-Fc) VHH: EVQLVESGGGLVQPGGSLRLSCAASGRTYDAMGWFRQAPGKEREFVASVTSGGYTHYADSVKGRFTISADNSKNTAYLQMNSLKPEDTAVYYCAKFGRKIVGATELDYWGQGTLVTVSS | 0.4 |
| variant 6-102 (Fc fusion) VHH: EVQLVESGGGLVQPGGSLRLSCAASGSSFSAYAMGWFRQAPGKEREFVSAIDSEGTTTYADSVKGRFTISADNSKNTAYLQMNSLKPEDTAVYYCAGDYNFWSGFDHWGQGTLVTVSS | 0.9 |
| variant 6-74 (Fc fusion) VHH: EVQLVESGGGLVQPGGSLRLSCAASGFAFGDSWMGWFRQAPGKERELVAAITSGGSTDYADSVKGRFTISADNSKNTAYLQMNSLKPEDTAVYYCARGLLWFGELFGYWGQGTLVTVSS | 498 |
| variant 6-68 (Fc fusion) VHH: EVQLVESGGGLVQPGGSLRLSCAASGFTLSDRAMGWFRQAPGKEREYVAHITAGGLSNYADSVKGRFTISADNSKNTAYLQMNSLKPEDTAVYYCVHLASQTGAGYFDLWGQGTLVTVSS | 0.7 |
| variant 6-70 (Fc fusion) VHH: EVQLVESGGGLVQPGGSLRLSCAASGFNLDDYADMGWFRQAPGKEREFVAAIGWGGGSTRYADSVKGRFTISADNSKNTAYLQMNSLKPEDTAVYYCAREILWFGEFGEPNVWGQGTLVTVSS | 1.1 |
| variant 6-75 (Fc fusion) VHH: EVQLVESGGGLVQPGGSLRLSCAASGGTFSTYWMGWFRQAPGKEREFVAAISRSGGNTYYADSVKGRFTISADNSKNTAYLQMNSLKPEDTAVYYCVRHSGTDGDSSFDYWGQGTLVTVSS | 1 |
| variant 6-103 (Fc fusion) VHH: EVQLVESGGGLVQPGGSLRLSCAASGRTSSPIAMGWFRQAPGKEREPVAVRWSDDYTYYADSVKGRFTISADNSKNTAYLQMNSLKPEDTAVYYCAKKLGGYYAFDIWGQGTLVTVSS | 1 |
| variant 6-84 (Fc fusion) VHH: EVQLVESGGGLVQPGGSLRLSCAASGFTPDDYAMGWFRQAPGKEREFVAAINSGGSYTYYADSVKGRFTISADNSKNTAYLQMNSLKPEDTAVYYCARDRGPWGQGTLVTVSS | 0.7 |

Biological target: CV S-protein construct 6 trimer TP31001F (SARS-CoV-2, UniProt P0DTC2 14-1208)
Assay: SPR
Remark: another data set of the same source

| Binder | Kd [nM] |
| --- | --- |
| variant 6-82 (Fc fusion) VHH: EVQLVESGGGLVQPGGSLRLSCAASGSSLDAYGMGWFRQAPGKEREFVAAISWGGGSIYYADSVKGRFTISADNSKNTAYLQMNSLKPEDTAVYYCARLSQGMVALDYWGQGTLVTVSS [variant 6-82, listing 2 of 2 here] | 0.6 |
| variant 6-45 (Fc fusion) VHH: EVQLVESGGGLVQPGGSLRLSCAASGNMFSINAMGWFRQAPGKEREFVTLISWSSGRTSYADSVKGRFTISADNSKNTAYLQMNSLKPEDTAVYYCASLGYCSGGSCFDYWGQGTLVTVSS | 1.3 |
| variant 5-63 (Fc fusion) VHH: EVQLVESGGGLVQPGGSLRLSCAASGFSLDYYDMGWFRQAPGKEREFVAALGWSGGSTDYADSVKGRFTISADNSKNTAYLQMNSLKPEDTAVYYCAAGNGGRYGIVERWGQGTLVTVSS | 0.4 |
| variant 6-6 (Fc fusion) VHH: EVQLVESGGGLVQPGGSLRLSCAASGTTLDYYAMGWFRQAPGKERELVAAISWSGGSTAYADSVKGRFTISADNSKNTAYLQMNSLKPEDTAVYYCAREDYYDSSGYSWGQGTLVTVSS | 67.7 |
| variant 5-1 (Fc fusion) VHH: EVQLVESGGGLVQPGGSLRLSCAASGGTFSSIGMGWFRQAPGKEREFVAAISWDGGATAYADSVKGRFTISADNSKNTAYLQMNSLKPEDTAVYYCAKEDVGKPFDWGQGTLVTVSS | 0.4 |
| variant 6-42 (Fc fusion) VHH: EVQLVESGGGLVQPGGSLRLSCAASGDTYGSYWMGWFRQAPGKEREFVAVITSGGSTNYADSVKGRFTISADNSKNTAYLQMNSLKPEDTAVYYCTHVQNSYYYAMDVWGQGTLVTVSS | 7.8 |
| variant 5-20 (Fc fusion) VHH: EVQLVESGGGLVQPGGSLRLSCAASGRTIVPYTMGWFRQAPGKERELVAAISPSAFTEYADSVKGRFTISADNSKNTAYLQMNSLKPEDTAVYYCAARRWGYDWGQGTLVTVSS | 1.1 |
| variant 6-44 (Fc fusion) VHH: EVQLVESGGGLVQPGGSLRLSCAASGGTFGVYHMGWFRQAPGKEREFIGRITWTDGSTYYADSVKGRFTISADNSKNTAYLQMNSLKPEDTAVYYCFGLLEVYDMTFDYWGQGTLVTVSS | 0.9 |
| variant 6-26 (Fc fusion) VHH: EVQLVESGGGLVQPGGSLRLSCAASGDTFSTSWMGWFRQAPGKEREFVATINTGGGTNYADSVKGRFTISADNSKNTAYLQMNSLKPEDTAVYYCARVTTSFDYWGQGTLVTVSS | 0.07 |
| variant 6-77 (Fc fusion) VHH: EVQLVESGGGLVQPGGSLRLSCAASGFTFDRSWMGWFRQAPGKEREFVAAVTEGGTTSYADSVKGRFTISADNSKNTAYLQMNSLKPEDTAVYYCARADYDFDYWGQGTLVTVSS | 3.5 |
| variant 6-30 (Fc fusion) VHH: EVQLVESGGGLVQPGGSLRLSCAASGFAFGDSWMGWFRQAPGKEREFVATINWSGVTAYADSVKGRFTISADNSKNTAYLQMNSLKPEDTAVYYCARADGYFDYWGQGTLVTVSS | 0.1 |
| variant 6-43 (Fc fusion) VHH: EVQLVESGGGLVQPGGSLRLSCAASGRTFSSYAMMGWFRQAPGKEREFVASVNWDASQINYADSVKGRFTISADNSKNTAYLQMNSLKPEDTAVYYCTTLGAVYFDSSGYHDYFDYWGQGTLVTVSS | 0.7 |
| variant 6-39 (Fc fusion) VHH: EVQLVESGGGLVQPGGSLRLSCAASGFTFSPSWMGWFRQAPGKEREFVAAISWSGGSTAYADSVKGRFTISADNSKNTAYLQMNSLKPEDTAVYYCHGLGEGDPYGDYEGYFDLWGQGTLVTVSS | 0.1 |

From US20210355194A1 (TWIST BIOSCIENCE, published 2021)
